Literature values as cited in article PMC4526808.
Read-outs that look alike come from different tables or passages of the source. Each block holds one substance with its values, some of them ahead of it.

What was measured:
PKA RIIα D/D domain [1] = molecular target: PKA RIIα D/D domain (UniProt P13861)
PKA RIIα D/D domain [2] = molecular target: PKA RIIα D/D domain (UniProt P13861); remark: listed apart in the source
PKA RIα D/D domain [3] = molecular target: PKA RIα D/D domain (UniProt P10644)
PKA RIIα D/D domain [4] = molecular target: PKA RIIα D/D domain (UniProt P13861); remark: listed apart in the source
PKA RIα D/D domain [5] = molecular target: PKA RIα D/D domain (UniProt P10644); remark: listed apart in the source

Chain of UniProt P13861 (P13861 2-45): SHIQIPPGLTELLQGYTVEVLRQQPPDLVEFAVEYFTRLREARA
Chain of UniProt P10644 (P10644 1-61): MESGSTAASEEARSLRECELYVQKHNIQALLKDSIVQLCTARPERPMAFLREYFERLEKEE

Kd (PKA RIIα D/D domain [1]): 0.4 nM
Substance: AKAP-is

Kd (PKA RIIα D/D domain [2]): 1800 nM | Kd (PKA RIα D/D domain [3]): 1 nM
Substance: RIAD

Kd (PKA RIIα D/D domain [4]): 2.2 nM | Kd (PKA RIα D/D domain [5]): 1300 nM
Substance: Ht31
